# Test results from patent US12221465.
# Biological target: empty A2-SABR pulsed with soluble MART1 peptide (…) (Homo sapiens; human) (UniProt P61769)
# Assay: cell-based or functional assay
substance,measurement,value
F5 TCR,"fold decrease in antigen sensitivity (concentration of the peptide required for half-maximal signaling), SABR signaling against TCR signaling",30 fold
